{
  "source": "IntAct's records for PubMed 18787122",
  "parents": {"B1": {"name": "Secreted effector protein SifA (Salmonella typhimurium), Q56061 (parent)", "chain": "MPITIGNGFLKSEILTNSPRNTKEAWWKVLWEKIKDFFFSTGKAKADRCLHEMLFAERAPTRERLTEIFFELKELACASQRDRFQVHNPHENDATIILRIMDQNEENELLRITQNTDTFSCEVMGNLYFLMKDRPDILKSHPQMTAMIKRRYSEIVDYPLPSTLCLNPAGAPILSVPLDNIEGYLYTELRKGHLDGWKAQEKATYLAAKIQSGIEKTTRILHHANISESTQQNAFLETMAMCGLKQLEIPPPHTHIPIEKMVKEVLLADKTFQAFLVTDPSTSQSMLAEIVEAISDQVFHAIFRIDPQAIQKMAEEQLTTLHVRSEQQSGCLCCFL", "partner": "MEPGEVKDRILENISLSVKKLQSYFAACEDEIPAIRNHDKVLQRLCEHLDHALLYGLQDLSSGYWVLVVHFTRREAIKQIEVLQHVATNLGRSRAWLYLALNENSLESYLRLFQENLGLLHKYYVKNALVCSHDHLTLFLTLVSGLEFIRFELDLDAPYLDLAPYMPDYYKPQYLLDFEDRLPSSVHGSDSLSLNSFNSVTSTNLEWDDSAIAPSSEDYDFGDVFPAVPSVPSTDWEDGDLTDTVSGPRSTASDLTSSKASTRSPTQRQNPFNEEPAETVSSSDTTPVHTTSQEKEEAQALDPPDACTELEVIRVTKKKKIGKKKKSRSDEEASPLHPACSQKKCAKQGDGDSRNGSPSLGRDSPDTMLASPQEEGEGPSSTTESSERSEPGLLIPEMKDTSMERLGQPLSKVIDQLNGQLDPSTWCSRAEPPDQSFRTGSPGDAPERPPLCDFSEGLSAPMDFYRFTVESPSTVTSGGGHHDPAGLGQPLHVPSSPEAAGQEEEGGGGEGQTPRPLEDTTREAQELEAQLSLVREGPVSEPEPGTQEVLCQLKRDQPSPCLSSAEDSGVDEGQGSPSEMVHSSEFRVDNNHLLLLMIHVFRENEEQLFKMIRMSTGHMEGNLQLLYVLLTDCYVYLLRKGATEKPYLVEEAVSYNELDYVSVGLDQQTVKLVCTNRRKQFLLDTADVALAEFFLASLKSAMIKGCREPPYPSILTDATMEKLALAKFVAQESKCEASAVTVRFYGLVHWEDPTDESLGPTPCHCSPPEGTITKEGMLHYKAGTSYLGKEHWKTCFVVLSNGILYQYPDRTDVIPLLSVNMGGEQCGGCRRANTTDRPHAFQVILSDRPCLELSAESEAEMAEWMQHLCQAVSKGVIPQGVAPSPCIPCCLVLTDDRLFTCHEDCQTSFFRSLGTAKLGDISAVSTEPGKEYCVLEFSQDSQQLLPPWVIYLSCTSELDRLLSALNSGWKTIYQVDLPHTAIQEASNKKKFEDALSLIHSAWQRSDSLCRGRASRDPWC"}},
  "data": [
    {"variants_of": "B1", "settings": "with pkhm2_human PLEKHM2, Q8IWE5", "values": [
      {"variant": "MPITIGNGFLKSEILTNSPRNTKEAWWKVLWEKIKDFFFSTGKAKADRCLHEMLFAERAPTRERLTEIFFELKELACASQRDRFQVHNPHENDATIILRIMDQNEENELLRITQNTDTFSCEVMGNLYFLMKDRPDILKSHPQMTAMIKRRYSEIVDYPLPSTLCLNPAGAPILSVPLDNIEGYLYTELRKGHLDGAKAQAKATYLAAKIQSGIEKTTRILHHANISESTQQNAFLETMAMCGLKQLEIPPPHTHIPIEKMVKEVLLADKTFQAFLVTDPSTSQSMLAEIVEAISDQVFHAIFRIDPQAIQKMAEEQLTTLHVRSEQQSGCLCCFL", "note": "[W197A;E201A]", "effect of a mutation on the interaction": "decreasing interaction"}
    ]}
  ]
}
